Results from the MegaScale stability set (Tsuboyama et al. 2023).

B1: EHEE_rd2_0196 (parent)
chain: TETRTFDSEEEAKKAQKEAEKQGRTVTITRRDDRWEVRFD

Variants of: B1
Assay: folding stability dG (cDNA display proteolysis); higher = more stable
Conditions: PBS, room temperature

Folding stability dG [kcal/mol], by site and new letter:
R30: D 0.983 | S 1.94 | K 3.11 | N 2.25 | I 2.46 | Q 2.81 | G 1.71 | W 2.68 | E 2.02 | A 2.3 | T 1.91 | F 3.33 | P 2.06 | L 2.83 | H 2.59 | V 2.5 | Y 2.83 | M 2.8
G23: A 1.56 | V 0.857 | F 1.81 | M 1.57 | Q 1.67 | N 2.01 | C 2.46 | S 1.57 | K 1.61 | W 1.64 | T 0.908 | E 1.11 | I 0.786 | H 2.15 | L 1.47 | P 0.683 | D 1.39 | Y 1.75 | R 1.63
T25: K 3.13 | R 3.32 | I 2.99 | E 2.28 | W 2.22 | M 2.67 | V 3.09 | H 3.16 | Q 2.81 | D 1.97 | N 2.69 | A 2.83 | G 2.32 | F 2.43 | P 2.21 | S 2.9 | Y 2.33 | L 2.77
D33: G 3.39 | H 2.5 | S 2.36 | C 2.47 | Q 2.46 | F 1.55 | A 1.96 | K 2.17 | T 2.09 | L 1.71 | E 2.7 | P 1.21 | N 3.08 | Y 1.48 | R 1.83 | I 1.37 | M 1.95 | W 1.34 | V 1.4
Q16: W 2.53 | Y 2.83 | V 3.18
R31: Q 2.55 | H 2.69 | E 2 | T 2.56 | F 2.75 | K 3.13 | A 2.38 | I 3.27 | M 2.78 | P 0.846 | W 2.18 | D 1.79 | L 2.9 | N 2.57 | Y 2.57 | S 2.29 | G 1.68 | V 3.43
D32: P 1.75 | R 2.48 | Q 2.97 | E 3.07 | S 2.45 | T 2.06 | L 2.63 | H 2.83 | K 3.01 | G 3.98 | V 2.29 | M 2.61 | I 2.11 | A 2.92 | W 1.84 | N 3.29 | F 2.55 | Y 2.19
T27: C 3.03 | D 1.37 | G 1.36 | K 2.45 | E 2.03 | S 2.76 | H 2.59 | I 2.94 | L 1.89 | M 2 | V 2.88 | Q 2.52 | W 1.8 | Y 1.95 | P 0.682 | A 2.16 | F 1.94 | N 2.11 | R 2.56
Q22: I 2.83 | M 3.24 | T 2.82 | D 2.88 | S 2.92 | K 2.73 | A 3.08 | C 3.26 | F 2.79 | Y 2.73 | H 2.99 | L 3.19 | G 2.58 | W 2.8 | P 1.55 | R 2.84 | N 3.02 | E 3.06 | V 2.81
K21: N 2.96 | Y 2.64 | Q 3.11 | H 2.82 | G 3.06 | S 3.19 | I 2.82 | L 3.22 | M 3.11 | T 2.85 | W 2.55 | A 3.41 | R 3.11 | E 3.18 | V 2.72 | F 2.66 | D 3.08 | P 1.11
A19: F 3.12 | T 1.27 | W 3.05 | M 3.04 | V 1.78 | P 0.448 | H 2.19 | N 1.72 | S 1.97 | G 2.75 | I 2.47 | Q 2.13 | E 2.28 | R 1.21 | K 1.33 | L 3.39 | Y 3.25 | D 1.41
R24: G 1.93 | W 3.24 | N 2.13 | M 3.32 | L 3.23 | D 2.29 | E 2 | S 2.19 | I 3.23 | A 2.56 | H 3 | P 0.456 | F 3.59 | K 3.01 | Y 3.62 | V 2.85 | T 2.22 | Q 2.84
T29: Y 2.21 | A 2.36 | V 3.16 | Q 2.59 | W 1.8 | L 2.53 | P 0.016 | D 1.71 | M 2.48 | I 3.19 | F 2.3 | N 2.45 | R 2.76 | H 2.75 | K 2.44 | E 2.48 | G 2.02 | S 2.73
I28: A 0.842 | F 0.342 | D -0.146 | N 0.423 | E 0.07 | S 0.645 | T 1.18 | L 2.06 | G 0.232 | M 1.77 | P 0.277 | H -0.123 | C 2.46 | Q 0.41 | V 2.83 | R 1.31 | Y 0.332 | K 0.714
V26: E 0.318 | L 1.23 | N 0.69 | W 0.253 | M 1.18 | G 2.61 | H 0.258 | R 0.117 | A 3.4 | Q 0.065 | K 0.184 | F 0.841 | Y 0.849 | P 1.87 | S 3 | I 2.08 | D 0.12 | C 3.6 | T 2.76
K17: E 3.17 | S 3.02 | M 3.21 | L 3.25 | V 3.15 | D 2.92 | I 3.22 | R 3.13 | H 2.98 | F 3.13 | A 3.25 | N 2.82 | P 0.527 | Y 3.23 | T 2.91 | Q 3.08 | G 2.67 | W 3.18
E20: G 2.13 | W 2.94 | S 2.47 | Q 2.86 | I 2.85 | L 3.14 | F 2.77 | N 2.53 | H 2.64 | C 2.81 | R 2.46 | P 0.742 | A 2.88 | M 3.06 | K 2.4 | D 2 | Y 2.56 | T 2.52 | V 2.67
R34: Y 3.18 | N 2.41 | H 3.13 | T 2.7 | Q 2.96 | W 2.79 | P 0.669 | I 3.14 | L 3.13 | A 2.81 | E 2.41 | M 3.14 | K 3.51 | G 3.16 | S 2.76 | F 3.14 | V 3.14 | D 2.03
E18: A 2.79 | Q 2.65 | Y 2.31 | R 2.46 | T 2.42 | N 2.46 | V 2.58 | G 1.75 | I 2.74 | M 2.81 | K 2.36 | P 0.538 | W 2.63 | S 2.38 | D 2.87 | C 3 | L 2.79 | H 2.55 | F 2.32
